From paper PMC3554688, “Potassium and Ionic Strength Effects on the Conformational and Thermal Stability of Two Aldehyde Dehydrogenases Reveal Structural and Functional Roles of K^+-Binding Sites” (PLoS ONE, 2013)

B1: betaine aldehyde dehydrogenase from Pseudomonas aeruginosa (enzyme)
chain: MARFEEQKLYIGGRYVEASSGATFETINPANGEVLAKVQRASREDVERAVQSAVEGQKVWAAMTAMQRSRILRRAVDILRERNDELAALETLDTGKPLAETRSVDIVTGADVLEYYAGLVPAIEGEQIPLRETSFVYTRREPLGVVAGIGAWNYPVQIALWKSAPALAAGNAMIFKPSEVTPLTALKLAEIYTEAGVPDGVFNVLTGSGREVGQWLTEHPLIEKISFTGGTSTGKKVMASASSSSLKEVTMELGGKSPLIIFPDADLDRAADIAVMANFFSSGQVCTNGTRVFIHRSQQARFEAKVLERVQRIRLGDPQDENTNFGPLVSFPHMESVLGYIESGKAQKARLLCGGERVTDGAFGKGAYVAPTVFTDCRDDMTIVREEIFGPVMSILVYDDEDEAIRRANDTEYGLAAGVVTQDLARAHRAIHRLEAGICWINTWGESPAEMPVGGYKQSGVGRENGLTTLAHYTRIKSVQVELGDYASVF
notes: betaine aldehyde dehydrogenase (BADH, ALDH9) of Pseudomonas aeruginosa; recombinant; Homotetramer; also called PaBADH; ALDH9; source: E. coli, purified to homogeneity
B2: betaine aldehyde dehydrogenase from spinach (Spinacia oleracea) (enzyme)
chain: MAFPIPARQLFIDGEWREPIKKNRIPVINPSTEEIIGDIPAATAEDVEVAVVAARRAFRRNNWSATSGAHRATYLRAIAAKITEKKDHFVKLETIDSGKPFDEAVLDIDDVASCFEYFAGQAEALDGKQKAPVTLPMERFKSHVLRQPLGVVGLISPWNYPLLMATWKIAPALAAGCTAVLKPSELASVTCLEFGEVCNEVGLPPGVLNILTGLGPDAGAPLVSHPDVDKIAFTGSSATGSKVMASAAQLVKPVTLELGGKSPIVVFEDVDIDKVVEWTIFGCFWTNGQICSATSRLLVHESIAAEFVDKLVKWTKNIKISDPFEEGCRLGPVISKGQYDKIMKFISTAKSEGATILYGGSRPEHLKKGYYIEPTIVTDISTSMQIWKEEVFGPVLCVKTFSSEDEAIALANDTEYGLAAAVFSNDLERCERITKALEVGAVWVNCSQPCFVQAPWGGIKRSGFGRELGEWGIQNYLNIKQVTQDISDEPWGWYKS
notes: betaine aldehyde dehydrogenase (BADH, ALDH10) of Spinacia oleracea; recombinant; Homodimer in K-buffer; associates into tetramers in the non-salt buffer; also called SoBADH; ALDH10; source: E. coli, purified to homogeneity

Key:
[1] = molecular target: the molecule itself; test: SEC; Superdex 200 HR 10/30, room temperature; K-buffer (1 mM PIPES-TEA hydroxide pH 6.9, 1 mM EDTA, 0.5 mM DTT, 250 mM KCl); 0.25 mg/ml protein
[2] = molecular target: the molecule itself; test: dynamic light scattering; 20°C; K-buffer (non-salt buffer plus 250 mM KCl); 0.25 mg/ml enzyme
[3] = molecular target: the molecule itself; test: dynamic light scattering; 20°C; non-salt buffer (1 mM PIPES-TEA hydroxide pH 6.9, 1 mM EDTA, 0.5 mM DTT); 0.25 mg/ml enzyme; for SoBADH: dimers to tetramer

Row | Protein | stoichiometry N [1] | stoichiometry N [2] | stoichiometry N [3]
1 | B1 | 4 |  | 
2 | B2 |  | 2 | 4
